Measured values as given in patent publication US20110150903A1 (Sanofi, published 2011).
Where “and” joins values, the source holds several entries; their conditions need not be identical. Equal entries are not always repeated.

T1: hFGFR3-Fc (human, UniProt P22607 23-375)
T1 construct: extracellular domain; Bought from R&D Systems; not shown: Fc domain of human IgG1
T1 sequence (looked up): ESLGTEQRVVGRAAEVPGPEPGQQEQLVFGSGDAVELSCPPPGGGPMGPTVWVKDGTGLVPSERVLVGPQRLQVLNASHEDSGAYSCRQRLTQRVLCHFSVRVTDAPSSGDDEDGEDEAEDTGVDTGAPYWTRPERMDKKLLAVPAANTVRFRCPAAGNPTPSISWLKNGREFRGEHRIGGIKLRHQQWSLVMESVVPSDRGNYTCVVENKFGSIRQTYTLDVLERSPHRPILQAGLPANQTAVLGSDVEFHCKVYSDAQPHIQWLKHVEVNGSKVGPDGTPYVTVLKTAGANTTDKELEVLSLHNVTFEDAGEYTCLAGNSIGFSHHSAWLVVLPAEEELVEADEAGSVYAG

B1: anti-FGFR4 antibody 64-12 (antibody, mouse IgG1, V domains shown)
VH: DVQLVESGGGLVQPGGSRKLSCAASGFTFSNFGMHWVRQAPEKGLEWVAYISSGSSTIYYADTVKGRFTISRDNPKNTLFLQMTSLRSEDTAMYYCARYDYDDDYYAMEYWGQGTSVTVSS
VL: QAVVTQESALTTSPGETVTLTCRSSTGAVTTSNYANWVQEKPDHLFTGLIGGTNNRAPGVPARFSGSLIGDKAALTITGAQTEDEAIYFCALWYSNHWVFGGGTKLTVLG
notes: also called clone 64-12; control antibody 64-12
B2: anti-FGFR4 antagonist monoclonal antibody 40-12 (antibody, mouse IgG1, kappa, V domains shown)
VH: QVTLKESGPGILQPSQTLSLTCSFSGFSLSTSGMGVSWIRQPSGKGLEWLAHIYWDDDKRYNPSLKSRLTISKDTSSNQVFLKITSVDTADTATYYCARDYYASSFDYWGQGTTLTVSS
VL: DIVLTQSPATLSVTPGDRVSLSCRASQSISNYLHWYQQKSHESPRLLIKYASQSISGIPSRFSGSGSGTDFILSFNSVETEDFGMYFCQQSNSWPFTFGSGTKLEIKR
notes: Purified on protein G; also called clone 40-12; anti-FGFR4 40-12
B3: anti-FGFR4 antibody clone 8 (human IgG1 format) (antibody, V domains shown)
VH: EVQLLESGGGLVQPGGSLRLSCAASGFTFSPYWMGWVRQAPGKGLEWVSVIWPSGGTTDYADSVKGRFTISRDNSKNTLYLQMNSLRAEDTAVYYCARVHPAGHNDHWGQGTLVTVSS
VL: QSELTQPPSASGTPGQRVTISCSGGYSNMGSNYAHWYQQLPGTAPKLLIYNNNQRPSGVPDRFSGSKSGTSASLAISGLRSEDEADYYCAAWDDSLSGPVFGGGTKLTVLG
notes: also called antibody 8
B4: anti-FGFR4 antibody clone 31 (human IgG1 format) (antibody, V domains shown)
VH: EVQLLESGGGLVQPGGSLRLSCAASGFTFSRYFMKWVRQAPGKGLEWVSWISPSGGLTEYADSVKGRFTISRDNSKNTLYLQMNSLRAEDTAVYYCARASYGAWLDYWGQGTLVTVSS
VL: DIQMTQSPSSLSLSPGERATLSCRASQSINRNLGWYQQKPGQAPRLLIYGASTRATGIPARFTGSGSGTEFSLTISSLQSEDYAIYYCQQYDNWPIIFGQGTRLEIKG
notes: As for clone 8: human IgG1 format from HEK293; also called antibody 31
B5: anti-FGFR4 antibody clone 33 (human IgG1 format) (antibody, V domains shown)
VH: EVQLLESGGGLVQPGGSLRLSCAASGFTFSTYWMAWVRQAPGKGLEWVSVIGPSGGMTVYADSVKGRFTISRDNSKNTLYLQMNSLRAEDTAVYYCARINSGSSHFDYWGQGTLVTVSS
VL: QSVLTQPPSASGTPGQGVTISCSGSSSNIGSNSVNWYQQLPGAAPKLLIYSNNLRPSGVPARFSGSKSGTSASLAISGLRSEDEADYYCAAWDDGLDAYVVFGGGTKLTVLG
notes: As for clone 8: human IgG1 format from HEK293; also called antibody 33
B6: anti-FGFR4 antibody clone 36 (human IgG1 format) (antibody, V domains shown)
VH: EVQLLESGGGLVQPGGSLRLSCAASGFTFSHYWMGWVRQAPGKGLEWVSVISPSGGLTIYADSVKGRFTISRDNSKNTLYLQMNSLRAEDTAVYYCARSSGWALDAFDIWGQGTMVTVSS
VL: QYELTQPPSASGTPGQRVTISCSGSSSNIGSNIVHWYQQLPGTAPKLLIYGNNQRPSGVPDRFSVSKSGSSASLAISGLQSEDEADYYCASWDDSLKAFYVFGTGTKVTVLG
notes: As for clone 8: human IgG1 format from HEK293; also called antibody 36
B7: clone 8 in the Fab format displayed on phage (Fab, V domains shown)
VH: EVQLLESGGGLVQPGGSLRLSCAASGFTFSPYWMGWVRQAPGKGLEWVSVIWPSGGTTDYADSVKGRFTISRDNSKNTLYLQMNSLRAEDTAVYYCARVHPAGHNDHWGQGTLVTVSS
VL: QSELTQPPSASGTPGQRVTISCSGGYSNMGSNYAHWYQQLPGTAPKLLIYNNNQRPSGVPDRFSGSKSGTSASLAISGLRSEDEADYYCAAWDDSLSGPVFGGGTKLTVLG
B8: clone 31 in the Fab format displayed on phage (Fab, V domains shown)
VH: EVQLLESGGGLVQPGGSLRLSCAASGFTFSRYFMKWVRQAPGKGLEWVSWISPSGGLTEYADSVKGRFTISRDNSKNTLYLQMNSLRAEDTAVYYCARASYGAWLDYWGQGTLVTVSS
VL: DIQMTQSPSSLSLSPGERATLSCRASQSINRNLGWYQQKPGQAPRLLIYGASTRATGIPARFTGSGSGTEFSLTISSLQSEDYAIYYCQQYDNWPIIFGQGTRLEIKG
B9: clone 33 in the Fab format displayed on phage (Fab, V domains shown)
VH: EVQLLESGGGLVQPGGSLRLSCAASGFTFSTYWMAWVRQAPGKGLEWVSVIGPSGGMTVYADSVKGRFTISRDNSKNTLYLQMNSLRAEDTAVYYCARINSGSSHFDYWGQGTLVTVSS
VL: QSVLTQPPSASGTPGQGVTISCSGSSSNIGSNSVNWYQQLPGAAPKLLIYSNNLRPSGVPARFSGSKSGTSASLAISGLRSEDEADYYCAAWDDGLDAYVVFGGGTKLTVLG
B10: clone 36 in the Fab format displayed on phage (Fab, V domains shown)
VH: EVQLLESGGGLVQPGGSLRLSCAASGFTFSHYWMGWVRQAPGKGLEWVSVISPSGGLTIYADSVKGRFTISRDNSKNTLYLQMNSLRAEDTAVYYCARSSGWALDAFDIWGQGTMVTVSS
VL: QYELTQPPSASGTPGQRVTISCSGSSSNIGSNIVHWYQQLPGTAPKLLIYGNNQRPSGVPDRFSVSKSGSSASLAISGLQSEDEADYYCASWDDSLKAFYVFGTGTKVTVLG

Legend:
[1] = biological target: T2, human FGF-R4 recombinant extracellular domain protein, construct not named (human, UniProt P22455 22-369); assay: SPR (BIAcore), antibody captured by anti-Fc antibody on the chip
T2 construct: extracellular domain; also called the FGF-R4 protein; complete extracellular domain of human FGF-R4

mFGFR4-Histag [2] = biological target: T3, mFGFR4-Histag (murine, UniProt Q03142 19-362); assay: ELISA on coated FGF-R4 constructs, single condition, antibody concentration not given
T3 construct: also called murine protein mFGFR4; murine FGF-R4

hFGFR3-Fc [3] = biological target: T1, hFGFR3-Fc; assay: ELISA on plates coated with the 4 human FGF receptors, single condition, antibody concentration not given
hFGFR4_D1:Fc (SABVA4794) = biological target: T4, hFGFR4_D1:Fc (SABVA4794) (human); assay: ELISA on coated subdomain-Fc construct
T4 construct: FGF-R4_HUMAN positions 1 to 179 fused to the Fc domain of human IgG1; also called fGFGR4_D1::Fc
Source text: (§1) The capture antigen was bound to Immulon-4 enzyme-linked plates (VWR Scientific Inc. Swedesboro, N.J.).

hFGFR4_D2:Fc (SABVA4796) = biological target: T5, hFGFR4_D2:Fc (SABVA4796) (human); assay: ELISA on coated subdomain-Fc construct
T5 construct: FGF-R4_HUMAN positions 1 to 32 plus 145 to 242 fused to the Fc domain of human IgG1; also called fGFGR4_D2::Fc
Source text: as §1

hFGFR4_D3:Fc (SABVA4799) = biological target: T6, hFGFR4_D3:Fc (SABVA4799) (human); assay: ELISA on coated subdomain-Fc construct
T6 construct: also called fGFGR4_D3::Fc
Source text: as §1

[4] = biological target: T7, human FGF-R4 expressed on cells (human, UniProt P22455 22-802); assay: displacement of FGF2-AF488 (10 ng/ml) from human FGF-R4 on 300-19 cells
T7 construct: whole, on cells; Functional assays: endogenous receptor of human Hep3b and HUVEC cells; also called human FGF-R4s expressed at the surface of transfected 300-19 cells; FGF-R4 of Hep3b and HUVEC cells

[5] = biological target: T8, rat FGF-R4 expressed on transfected 300-19 cells (rat, UniProt Q498D6 17-800); assay: displacement of labelled rat FGF2 from rat FGF-R4 on 300-19 cells; rat FGF-R4, rat FGF2; in ng/ml
T8 construct: also called rFGFR4
Procedure: (§2) Firstly, competition binding experiments were carried out.
(§3) The dissociation experiments were carried out using the 300-19 lines transfected with mouse or rat FGF-R4 receptors.

hFGFR1-Fc [6] = biological target: T9, hFGFR1-Fc (human); assay: ELISA on plates coated with the 4 human FGF receptors, antibody concentration not given
T9 construct: Extracellular domain of human FGF-R1 IIIc fused C-terminally to the Fc domain of human IgG1

hFGFR2-Fc [7] = biological target: T10, hFGFR2-Fc (human); assay: as above
T10 construct: Extracellular domain of human FGF-R2 IIIc fused C-terminally to the Fc domain of human IgG1

hFGFR3-Fc [8] = biological target: T1, hFGFR3-Fc; assay: as above
[9] = biological target: T11, mouse FGF-R4 expressed on transfected 300-19 cells (mouse, UniProt Q03142 17-799); assay: displacement of labelled murine FGF2 from mouse FGF-R4 on 300-19 cells; mouse FGF-R4, murine FGF2; in ng/ml
T11 construct: whole, on cells; also called murine FGF-R4
Procedure: as §2, §3

hFGFR4-Histag [10] = biological target: T12, hFGFR4-Histag (human, UniProt P22455 22-365); assay: SPR (BIAcore 3000)
T12 construct: also called SABVA4614

mFGFR4-Histag [11] = biological target: T3, mFGFR4-Histag; assay: SPR (BIAcore 3000)
hFGFR4-Histag [12] = biological target: T12, hFGFR4-Histag; assay: ELISA, HEK293 supernatant IgG on coated antigen
Source text: as §1

hFGFR4(D2,D3)-Histag [13] = biological target: T13, hFGFR4(D2,D3)-Histag (human, UniProt P22455 22-365); assay: ELISA, HEK293 supernatant IgG on coated antigen
T13 construct: also called extracellular domain of FGF-R4 deleted of its D1 domain
Source text: as §1

hFGFR4(D2,D3)-Histag [14] = biological target: T13, hFGFR4(D2,D3)-Histag; assay: phage Fab ELISA on coated antigen, anti-M13 detection
Source text: (§4) The specificity of each antibody is established by ELISA according to the following protocol: suspensions of phages displaying, at their surface, the antibodies in the Fab format are generated by infection of E. coli bacteria. The capture antigens were bound to Immulon-2 enzyme-linked dishes (VWR Scientific Inc. Swedesboro, N.J.).

hFGFR1-Fc [15] = biological target: T9, hFGFR1-Fc; assay: as above
Source text: as §4

hFGFR2-Fc [16] = biological target: T10, hFGFR2-Fc; assay: as above
Source text: as §4

hFGFR3-Fc [17] = biological target: T1, hFGFR3-Fc; assay: as above
Source text: as §4

Row | Binder | Kd (hFGFR4-Histag [10]) [nM] | koff (hFGFR4-Histag [10]) [s⁻¹] | kon (hFGFR4-Histag [10]) [M⁻¹ s⁻¹] | Kd (mFGFR4-Histag [11]) [nM] | koff (mFGFR4-Histag [11]) [s⁻¹] | kon (mFGFR4-Histag [11]) [M⁻¹ s⁻¹] | OD signal at 450 nm (hFGFR4-Histag [12]) [OD 450 nm] | OD signal at 450 nm (hFGFR4(D2,D3)-Histag [13]) [OD 450 nm] | ELISA signal (OD, 450 nm) (hFGFR4(D2,D3)-Histag [14]) [OD 450 nm] | ELISA signal (OD, 450 nm) (hFGFR1-Fc [15]) [OD 450 nm] | ELISA signal (OD, 450 nm) (hFGFR2-Fc [16]) [OD 450 nm] | ELISA signal (OD, 450 nm) (hFGFR3-Fc [17]) [OD 450 nm] | other results
1 | B1 | – | – | – | – | – | – | – | – | – | – | – | – | Kd [1]: 57.5 nM; koff [1]: 0.000602 s⁻¹; kon [1]: 10500 M⁻¹ s⁻¹; binding result (mFGFR4-Histag [2]): binds; binding result (hFGFR3-Fc [3]): binds
2 | B2 | – | – | – | – | – | – | – | – | – | – | – | – | Signal (O.D., 450 nm) (hFGFR4_D1:Fc (SABVA4794)): 0.185 O.D. 450 nm; Signal (O.D., 450 nm) (hFGFR4_D2:Fc (SABVA4796)): 3 O.D. 450 nm; Signal (O.D., 450 nm) (hFGFR4_D3:Fc (SABVA4799)): 0.105 O.D. 450 nm; Kd [1]: 6.5 nM; koff [1]: 0.00126 s⁻¹; kon [1]: 194000 M⁻¹ s⁻¹; IC50 [4]: 3.5 µg/mL and 23 nM; IC50 [5]: 3.94 mg/L; binding result (hFGFR1-Fc [6]): no binding; binding result (hFGFR2-Fc [7]): no binding; binding result (hFGFR3-Fc [8]): no binding; IC50 [9]: 4.11 mg/L
3 | B3 | 0.327 | 0.000292 | 893000 | 0.115 | 0.000136 | 1.2e+06 | 3.9 | 3.86 | – | – | – | – | –
4 | B4 | 1.52 | 0.00098 | 648000 | 1.97 | 0.0018 | 914000 | 3.86 | 3.74 | – | – | – | – | –
5 | B5 | 0.771 | 0.000617 | 805000 | 0.692 | 0.000704 | 1.01e+06 | 3.75 | 3.62 | – | – | – | – | –
6 | B6 | 2.62 | 0.000631 | 244000 | 2.28 | 0.000752 | 330000 | 3.75 | 3.62 | – | – | – | – | –
7 | B7 | – | – | – | – | – | – | – | – | 2.55 | 0.05 | 0 | 0 | –
8 | B8 | – | – | – | – | – | – | – | – | 2.52 | 0 | 0 | 0.01 | –
9 | B9 | – | – | – | – | – | – | – | – | 2.73 | 0 | 0 | -0.01 | –
10 | B10 | – | – | – | – | – | – | – | – | 1.87 | -0.01 | -0.01 | -0.02 | –
